Test results: the supplement of paper PMC10567573

B1: ZNF511 (parent)
chain: EPLPVERDPAAGAAPFRFVARPVR

Variants of: B1
Test: protein stability index of a GFP-peptide fusion (GPS, HEK-293T) (PSI 1-6); higher = more stable
Conditions: c terminus: a fixed tail appended
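Note: lentivirally expressed fusions sorted by FACS into six bins by GFP to DsRed ratio, PSI derived from sequencing read proportions per bin multiplied by bin number.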

Point of comparison: EPLPVERDPAAGAAPFRFVARPVP [R24P], protein stability index 2.75. Against it:
- EPLIVERDPAAGAAPFRFVARPVR [P4I] — higher, 2.9
- EPLWVERDPAAGAAPFRFVARPVR [P4W] — lower, 1.58
- EPLEVERDPAAGAAPFRFVARPVR [P4E] — lower, 2.43
- EPLFVERDPAAGAAPFRFVARPVR [P4F] — lower, 2.52
- EPLPVERDPAAGAAPFRIVARPVR [F18I] — higher, 4.71
- EPLPVERDPAAGAAPFRTVARPVR [F18T] — higher, 4.86
- EPLPVERDPAAGAAPFREVARPVR [F18E] — higher, 5.37
- EPLPVERDPAAGAAPFRKVARPVR [F18K] — higher, 4.87
- EPLPVERDPAAGAAPFRPVARPVR [F18P] — higher, 5.01
- EPLPVERDPAAGAAPFRGVARPVR [F18G] — higher, 5.14
- EPLPVERDPAAGAAPFRWVARPVR [F18W] — higher, 4.43
- EPLPVERDPAAGAAPFRCVARPVR [F18C] — higher, 4.59
- EPLPVERDPAAGAAPFRQVARPVR [F18Q] — higher, 4.79
- EPLPVERDPAAGAAPPRFVARPVR [F16P] — higher, 5.26
- EPLPVERDPAAGAAPSRFVARPVR [F16S] — higher, 4.88
- EPLPVERDPAAGAAPNRFVARPVR [F16N] — higher, 4.86
- EPLPVERDPAAGAAPRRFVARPVR [F16R] — higher, 5.16
- EPLPVERDPAAGAAPYRFVARPVR [F16Y] — higher, 3.82
- EPLPVERDPAAGAAPVRFVARPVR [F16V] — higher, 4.62
- EPLPVERDPAAGAAPCRFVARPVR [F16C] — higher, 4.08
- EPLPVERDPAAGAAPFRFVYRPVR [A20Y] — higher, 4.17
- EPLPVERDPAAGAAPFRFVKRPVR [A20K] — lower, 1.97
- EPLPVERDPAAGAAPFRFVVRPVR [A20V] — lower, 2.46
- EPLPVERDPAAQAAPFRFVARPVR [G12Q] — lower, 2.55
- EPLPVERDPAATAAPFRFVARPVR [G12T] — lower, 1.64
- EPLPVERDPAARAAPFRFVARPVR [G12R] — lower, 2.33
- EPLPVERDPAAVAAPFRFVARPVR [G12V] — lower, 1.92
- EPLPVERDPAAGAAPFRFVARWVR [P22W] — lower, 2.66
- EPLPVERDPAAGAAPFRFVARLVR [P22L] — lower, 2.33
- EPLPVERDPAAGAAPFRFVARFVR [P22F] — higher, 3.22
- EPLPVERDPAAGAAPFRFVARDVR [P22D] — higher, 2.77
- EPLPVERDPAAGAAPFRFVARCVR [P22C] — lower, 2.17
- EPLPVERDPAAGAAPFRFVARQVR [P22Q] — lower, 2.02
- EPLPVERDPAAGAAPFRFVARRVR [P22R] — higher, 2.8
- EPLPVERDPAAGAAPFRFVARYVR [P22Y] — lower, 2.32
- EPLPVERDPAAGSAPFRFVARPVR [A13S] — higher, 3.04
- EPLPVERDPAAGFAPFRFVARPVR [A13F] — lower, 1.94
- EPLPVERDPAAGDAPFRFVARPVR [A13D] — higher, 3.26
- EPLPVERDPAAGRAPFRFVARPVR [A13R] — lower, 2.34
- EPLPVERDPAAGNAPFRFVARPVR [A13N] — lower, 2.58
- EPLPVERDPAAGAAWFRFVARPVR [P15W] — lower, 2.32
- EPLPVERDPAAGAAFFRFVARPVR [P15F] — higher, 3.23
- EPLPVERDPAAGAAHFRFVARPVR [P15H] — higher, 4.05
- EPLPVERDPAAGAATFRFVARPVR [P15T] — higher, 3.94
- EPLPVERDPAAGAANFRFVARPVR [P15N] — higher, 3.64
- EPLPVERDPAAGAACFRFVARPVR [P15C] — higher, 3.77
- EPLPVERDPAAGAAIFRFVARPVR [P15I] — higher, 3.22
- EPLPVERDPAAGAALFRFVARPVR [P15L] — higher, 3.68
- EPLPVERDPAAGAAPFRFWARPVR [V19W] — higher, 3.65
- EPLPVERDPAAGAAPFRFIARPVR [V19I] — higher, 2.89
- EPLPVERDPAAGAAPFRFGARPVR [V19G] — higher, 5.14
- EPLPVERDPAAGAAPFRFPARPVR [V19P] — higher, 5.1
- EPLPVERDPAAGAAPFRFMARPVR [V19M] — higher, 4.1
- EPLPVERDPAAGAAPFRFQARPVR [V19Q] — higher, 2.99
- EPDPVERDPAAGAAPFRFVARPVR [L3D] — lower, 2.1
- EPNPVERDPAAGAAPFRFVARPVR [L3N] — higher, 2.76
- EPRPVERDPAAGAAPFRFVARPVR [L3R] — higher, 3.45
- EPQPVERDPAAGAAPFRFVARPVR [L3Q] — lower, 2.64
- EPMPVERDPAAGAAPFRFVARPVR [L3M] — lower, 2.28
- EPLPVERGPAAGAAPFRFVARPVR [D8G] — lower, 1.91
- EPLPVEREPAAGAAPFRFVARPVR [D8E] — lower, 2.13
- EPLPVERYPAAGAAPFRFVARPVR [D8Y] — lower, 2.63
- EPLPVERLPAAGAAPFRFVARPVR [D8L] — lower, 2.22
- EPLPVERWPAAGAAPFRFVARPVR [D8W] — lower, 1.91
- EPLPVERAPAAGAAPFRFVARPVR [D8A] — lower, 2.26
- EPLPVERMPAAGAAPFRFVARPVR [D8M] — lower, 2.46
- EPLPVERNPAAGAAPFRFVARPVR [D8N] — higher, 3.17
- EPLPVERQPAAGAAPFRFVARPVR [D8Q] — lower, 2.12
- EPLPVERVPAAGAAPFRFVARPVR [D8V] — lower, 2.4
- EPLPVERDPAAGAAPFRFVARPGR [V23G] — lower, 2.25
- EPLPVERDPAAGAAPFRFVARPIR [V23I] — higher, 3
- EPLPVERDPAAGAAPFRFVARPWR [V23W] — lower, 2.28
- EPLPVERDPAAGAAPFRFVARPKR [V23K] — lower, 2.01
- EPLPVERDPAAGAAPFRFVARPDR [V23D] — lower, 2.4
- EPLPVERDPAAGAAPFRFVARPAR [V23A] — lower, 2.58
- EPLPVERDPAAGAAPFRFVARPMR [V23M] — lower, 2.4
- EPLPVERDPAAGAAPFRFVARPPR [V23P] — higher, 2.83
- EPLPVERDPAAGAAPFRFVARPQR [V23Q] — higher, 2.95
- EPLPVERDPALGAAPFRFVARPVR [A11L] — lower, 1.86
- EPLPVERDPADGAAPFRFVARPVR [A11D] — lower, 2.33
- EPLPVERDPAAGAAPFRFVARPVD [R24D] — lower, 2.17
- EPLPVERDPAAGAAPFRFVARPVA [R24A] — lower, 2.2
- EPLPVERDPAAGAAPFRFVARPVC [R24C] — lower, 2.22
- EPLPVERDPAAGAAPFRFVARPVM [R24M] — lower, 2.37
- EPLPVERDPAAGAAPFRFVARPVE [R24E] — lower, 2.15
- FPLPVERDPAAGAAPFRFVARPVR [E1F] — higher, 2.85
- PPLPVERDPAAGAAPFRFVARPVR [E1P] — lower, 2.23
- LPLPVERDPAAGAAPFRFVARPVR [E1L] — lower, 2.69
- WPLPVERDPAAGAAPFRFVARPVR [E1W] — lower, 2.35
- HPLPVERDPAAGAAPFRFVARPVR [E1H] — lower, 2.2
- YPLPVERDPAAGAAPFRFVARPVR [E1Y] — lower, 1.77
- EPLPVERDPAAGAEPFRFVARPVR [A14E] — higher, 4.11
- EPLPVERDPAAGAHPFRFVARPVR [A14H] — lower, 2.53
